From the supplement of paper PMC7877785
± gives the uncertainty stated by the source.

Assay: self-splicing fitness, log relative to wild type (ln ratio); higher = more splicing; Tetrahymena group I intron in knt gene, E. coli kanamycin selection, DiMSum; sequences stand for … in CUCUCU…GGAGGGAAAAGUUAUCAGGCAUGCACCUGGUAGCUAGUCUUUAAACCAAUAGAUUGCAUCGGUUUAAAAGGCAAGACCGUCAAAUUGCGGGAAAGGGGUCAACAGCCGUUCAGUACCAAGUCUCAGGGGAAACUUUGAGAUGGCCUUGCAAAGGGUAUGGUAAUAAGCUGACGGACAUGGUCCUAACCACGCAGCCAAGUCCUAAGUCAACAGAUCUUCUGUUGAUAUGGAUGCAGUUCACAGACUAAAUGUCGGUCGGGGAAGAUGUAUUCUUCUCAUAAGAUAUAGUCGGACCUCUCCUUAAUGGGAGCUAGCGGAUGAAGUGAUGCAACACUGGAGCCGCUGGGAACUAAUUUGUAUGCGAAAGUAUAUUGAUUAGUUUUGGAGUACUCGUGGUCG
Procedure, shortened: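 Colonies from six replicate transformations of E. coli BL21(DE3) were pooled and amplicon-sequenced on an Illumina HiSeq 2500. The library placed an intron with all eight P1ex-region nucleotides randomised inside the knt kanamycin-resistance gene on pET-22b(+), and cells grew overnight at 37°C or 30°C on LB agar with or without 25 μg/mL kanamycin (plus 100 μg/mL carbenicillin, 50 μM IPTG, 0.2% rhamnose). Fitness is the DiMSum error-weighted combination of wild-type-normalised replicate fold changes, kanamycin versus none.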

Sequence | self-splicing fitness (ln) (30 °C) | self-splicing fitness (ln) (37 °C)
GAGUAGCAAUAUUACGUCGU | -3.35 ± 0.29 | -0.572 ± 0.2
AUCCAGCAAUAUUACGGCUG | -3.69 ± 0.39 | -2.43 ± 0.27
UAACAGCAAUAUUACGUCGG | -0.858 ± 0.066 | -0.53 ± 0.08
CCACAGCAAUAUUACGUAGC | -4.48 ± 0.29 | -2.7 ± 0.26
UAUGAGCAAUAUUACGUUGA | -2.96 ± 0.26 | -1.25 ± 0.17
CAAUAGCAAUAUUACGGGGC | -2.73 ± 0.22 | -2.45 ± 0.23
AAUAAGCAAUAUUACGGCUC | -0.468 ± 0.13 | 0.129 ± 0.15
UGCUAGCAAUAUUACGAGUC | -3.43 ± 0.26 | -2.5 ± 0.28
GCGAAGCAAUAUUACGUAUA | -2.18 ± 0.29 | 0.188 ± 0.43
AUCCAGCAAUAUUACGUGUA | -1.71 ± 0.06 | -0.487 ± 0.059
AACGAGCAAUAUUACGCCGA | -2.83 ± 0.25 | -2.42 ± 0.17
UAUGAGCAAUAUUACGUCGG | -2.86 ± 0.23 | -2.18 ± 0.2
ACCAAGCAAUAUUACGAUGA | -1.97 ± 0.1 | -1.36 ± 0.11
AAAAAGCAAUAUUACGGCUC | -0.28 ± 0.076 | 0.157 ± 0.098
GUUGAGCAAUAUUACGUUAA | -2.83 ± 0.38 | -2.34 ± 0.25
AUGAAGCAAUAUUACGCCAC | -0.249 ± 0.39 | -1.9 ± 0.41
GCAAAGCAAUAUUACGUACA | -1.31 ± 0.11 | -0.858 ± 0.13
UAGGAGCAAUAUUACGAGCG | -3.58 ± 0.4 | -1.31 ± 0.35
UUACAGCAAUAUUACGGAUU | -3.81 ± 0.24 | -2.08 ± 0.16
CGUAAGCAAUAUUACGUAUU |  | -0.991 ± 0.15
UUAGAGCAAUAUUACGCGAC | -3.78 ± 0.37 | 
AGUAAGCAAUAUUACGCCCU | -0.35 ± 0.17 | -0.62 ± 0.16
AUAAAGCAAUAUUACGGGUG | -1.03 ± 0.082 | -0.259 ± 0.094
ACUCAGCAAUAUUACGGGUU | -3.64 ± 0.17 | -2.37 ± 0.19
AACUAGCAAUAUUACGCGCU | -1.79 ± 0.12 | -0.454 ± 0.12
GGAAAGCAAUAUUACGCGUA | -1.45 ± 0.14 | -1.52 ± 0.13

Sequence | self-splicing fitness (ln) (30 °C) | self-splicing fitness (ln) (37 °C)
AAGUAGCAAUAUUACGAAAU | -2.3 ± 0.2 | -0.59 ± 0.18
AAAAAGCAAUAUUACGUCUG | -0.785 ± 0.058 | -0.319 ± 0.072
AAUGAGCAAUAUUACGGCAU | -1.55 ± 0.12 | -0.695 ± 0.12
UCAUAGCAAUAUUACGUUAU | -3.05 ± 0.14 | -2.21 ± 0.16
CAUUAGCAAUAUUACGACUU | -1.99 ± 0.16 | -1.71 ± 0.18
CCGAAGCAAUAUUACGCCAC |  | -1.9 ± 0.34
ACUCAGCAAUAUUACGUCAG | -2.31 ± 0.1 | -2.68 ± 0.17
CACAAGCAAUAUUACGCUGC | -5.23 ± 0.32 | -2.87 ± 0.21
GCACAGCAAUAUUACGCCGU | -1.51 ± 0.1 | 0.145 ± 0.14
UAGUAGCAAUAUUACGAAGU | -2.42 ± 0.24 | -2.07 ± 0.33
GACGAGCAAUAUUACGGACU | -0.448 ± 0.15 | -0.75 ± 0.18
UUAGAGCAAUAUUACGGCAA | -0.627 ± 0.12 | -0.584 ± 0.18
GCCGAGCAAUAUUACGCGAG | -3.29 ± 0.32 | -2.03 ± 0.32
ACCAAGCAAUAUUACGGUGG | -4.89 ± 0.21 | -2.53 ± 0.14
GAUCAGCAAUAUUACGAGUC | -3.31 ± 0.29 | -0.73 ± 0.16
CUUGAGCAAUAUUACGUUAC | -3 ± 0.33 | -2.44 ± 0.32
ACGGAGCAAUAUUACGUAGA | -4.18 ± 0.31 | -2.41 ± 0.24
ACCAAGCAAUAUUACGAAUG | -3.18 ± 0.1 | -1.78 ± 0.1
AUACAGCAAUAUUACGCCCG | -0.847 ± 0.17 | -0.634 ± 0.25
UACCAGCAAUAUUACGCCUA | 0.00559 ± 0.047 | 0.659 ± 0.065
CCGUAGCAAUAUUACGUCAU | -3.33 ± 0.24 | -2.32 ± 0.28
AUACAGCAAUAUUACGAGCG | -1.63 ± 0.096 | -0.55 ± 0.1
GUUAAGCAAUAUUACGUCUC | -0.932 ± 0.1 | -0.514 ± 0.12
UUGUAGCAAUAUUACGGUCA | -0.412 ± 0.17 | -0.486 ± 0.2
UAACAGCAAUAUUACGGCUA | 0.184 ± 0.052 | -0.0982 ± 0.067
UCUGAGCAAUAUUACGGACG | -1.17 ± 0.35 | -2.21 ± 0.45

Sequence | self-splicing fitness (ln) (30 °C) | self-splicing fitness (ln) (37 °C)
CGCCAGCAAUAUUACGCCCG | -1.47 ± 0.14 | -0.959 ± 0.19
CGCUAGCAAUAUUACGAUAC | -3.07 ± 0.21 | -2.31 ± 0.16
CUUAAGCAAUAUUACGUGUU | -4.03 ± 0.15 | -2.66 ± 0.15
UAUGAGCAAUAUUACGCAUG | -2.53 ± 0.11 | -1.76 ± 0.15
UGCGAGCAAUAUUACGGGGC | -3.09 ± 0.27 | 
AUUAAGCAAUAUUACGUAAU | -1.66 ± 0.11 | -0.745 ± 0.14
AGAUAGCAAUAUUACGGACA | -0.869 ± 0.15 | -0.224 ± 0.16
CAACAGCAAUAUUACGGUAU | -3.52 ± 0.1 | -1.9 ± 0.09
UUGAAGCAAUAUUACGACUG | -0.106 ± 0.073 | 0.183 ± 0.097
CGUGAGCAAUAUUACGGCAU | -2.59 ± 0.11 | -2.28 ± 0.16
ACUUAGCAAUAUUACGCUAU | -3.05 ± 0.24 | -2.09 ± 0.23
GGCGAGCAAUAUUACGCAAU | -2.22 ± 0.12 | -0.788 ± 0.13
UAGUAGCAAUAUUACGAGAC |  | -1.37 ± 0.39
AGUUAGCAAUAUUACGGGAU | -3.18 ± 0.26 | -1.46 ± 0.22
CCUCAGCAAUAUUACGCGUG | -1.85 ± 0.081 | -0.545 ± 0.072
CUAGAGCAAUAUUACGUGUC | -4.02 ± 0.3 | -2.88 ± 0.26
UUACAGCAAUAUUACGGCAA | -0.112 ± 0.11 | -0.272 ± 0.12
CGCAAGCAAUAUUACGAGGA | -3.23 ± 0.24 | -2.81 ± 0.29
UUCGAGCAAUAUUACGCACC | -3.33 ± 0.29 | -1.91 ± 0.24
UAUCAGCAAUAUUACGUAGC | -2.63 ± 0.16 | -1.42 ± 0.2
AUCCAGCAAUAUUACGCAAC | -2.21 ± 0.13 | -0.741 ± 0.12
UAUAAGCAAUAUUACGCCCG | 0.0737 ± 0.21 | 0.591 ± 0.3
GGAGAGCAAUAUUACGAGAG | -3.07 ± 0.25 | -2.31 ± 0.33
CGCAAGCAAUAUUACGAGGC | -2.71 ± 0.2 | -2.84 ± 0.29
GCUAAGCAAUAUUACGAGGA | -1.73 ± 0.11 | -0.693 ± 0.12
